Data from patent US20220332804A1 (CSL INNOVATION, published 2022).
Where a chain is given by its changes, count along the chain named.

Experiments:
Experiment in all cases: SPR, mAb captured, C2 mutant analyte;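 also: Anti-C2 mAbs captured on goat anti-human IgG Biacore CM5 chips, alanine or serine C2 surface mutants flowed over at 37 °C, double-referenced sensorgrams fitted to a 1:1 binding model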
[1] = target: T1, human C2 N268A (human, UniProt P06681 21-752)
T1 sequence: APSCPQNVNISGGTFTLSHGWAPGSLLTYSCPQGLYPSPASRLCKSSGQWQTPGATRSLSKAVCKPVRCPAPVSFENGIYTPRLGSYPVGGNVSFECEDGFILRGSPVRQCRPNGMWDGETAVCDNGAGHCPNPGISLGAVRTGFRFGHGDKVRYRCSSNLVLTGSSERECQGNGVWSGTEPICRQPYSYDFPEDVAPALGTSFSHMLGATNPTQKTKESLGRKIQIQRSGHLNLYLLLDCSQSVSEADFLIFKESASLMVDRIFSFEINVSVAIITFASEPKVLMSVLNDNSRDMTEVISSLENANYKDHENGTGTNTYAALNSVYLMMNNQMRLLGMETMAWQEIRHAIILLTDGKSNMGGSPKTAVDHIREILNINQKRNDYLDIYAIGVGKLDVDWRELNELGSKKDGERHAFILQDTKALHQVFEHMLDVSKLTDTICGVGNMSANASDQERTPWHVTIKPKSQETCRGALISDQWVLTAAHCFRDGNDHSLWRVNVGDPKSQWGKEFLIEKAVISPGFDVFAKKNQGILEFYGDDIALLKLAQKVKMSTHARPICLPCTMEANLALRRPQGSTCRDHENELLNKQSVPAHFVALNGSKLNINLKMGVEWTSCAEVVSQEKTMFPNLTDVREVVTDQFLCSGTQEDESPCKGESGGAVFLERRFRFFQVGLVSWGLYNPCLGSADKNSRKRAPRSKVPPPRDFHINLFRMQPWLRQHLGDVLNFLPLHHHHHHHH

[2] = target: T2, human C2 N424A (human, UniProt P06681 21-752)
T2 sequence: T1 sequence with A248N, N404A

[3] = target: T3, human C2 L453A (human, UniProt P06681 21-752)
T3 sequence: T1 sequence with A248N, L433A

[4] = target: T4, human C2 A470S (human, UniProt P06681 21-752)
T4 sequence: T1 sequence with A248N, A450S

B1: RF16-214 (antibody, V domains shown)
VH: EVQLLESGGGLVQPGGSLRLSCAASGFTFSWYQMMWVRQAPGKGLEWVSRIYPSGGGTAYADSVKGRFTISRDNSKNTLYLQMNSLRAEDTAVYYCARDAGYGDNWGQGTLVTVSS
VL: QSALTQPPSVSVSPGQTASITCSGDKLGEKYASWYQQKAGQSPVMVIYQDRKRPSGIPERFSGSNSGNTATLTISGTQAMDEADYYCQAWDTRAVVFGGGTKLTVLG
B1 was tested, and the Kd [1] was 60.8 nM, the Kd [2] was 16.1 nM and the Kd [3] was 1410 nM. It also gave a Kd [4] of 32.8 nM.
